Results reported in US20220380425A1, “ANGPTL3 BASED VACCINE FOR THE TREATMENT OF LIVER DISEASE” (CADILA HEALTHCARE LIMITED, priority 2019, published 2022).
Square brackets hold non-standard residues; d marks the D form. Ends that are not written are not given here. APPA = 2-aminophenyl pentanoic acid; hArg = N=C(N)NCCCC[C@H](N)C(=O)O; Cit = NC(=O)NCCC[C@H](N)C(=O)O; Nle = CCCC[C@H](N)C(=O)O; Aib = CC(C)(N)C(=O)O

T1: ANGPTL3 (Homo sapiens, UniProt Q9Y5C1)
T1 construct: In humans, Evinacumab (a therapeutic mAb developed against ANGPTL3) caused a dose-dependent reduction; host or cells: human subjects (circulating endogenous protein)
T1 sequence (Q9Y5C1 17-460): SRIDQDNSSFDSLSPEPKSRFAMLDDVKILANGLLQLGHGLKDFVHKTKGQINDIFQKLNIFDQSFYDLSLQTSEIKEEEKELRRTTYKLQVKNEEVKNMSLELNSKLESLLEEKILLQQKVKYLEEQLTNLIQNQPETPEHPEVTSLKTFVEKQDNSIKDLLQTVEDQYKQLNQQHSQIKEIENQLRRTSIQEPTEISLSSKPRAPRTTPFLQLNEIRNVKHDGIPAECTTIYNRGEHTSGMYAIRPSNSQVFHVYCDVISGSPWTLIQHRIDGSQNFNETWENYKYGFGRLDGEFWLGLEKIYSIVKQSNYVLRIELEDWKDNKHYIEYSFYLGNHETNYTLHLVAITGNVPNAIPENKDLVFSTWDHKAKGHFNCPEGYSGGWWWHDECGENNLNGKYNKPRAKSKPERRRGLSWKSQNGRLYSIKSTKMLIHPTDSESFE


Target: Anti-ANGPTL3 polyclonal antibody (ABC83, Sigma)
Assay: SPR (Biacore T200), antibody immobilised on CM5, peptide as analyte at 1 mM
Settings: not given

| Molecule | Relative response [RU] |
| --- | --- |
| CRF[Aib]MLDDVKILANGLLQLGHGLKDFVHKTKGQI [Peptide of SEQ ID NO. 84 (C-RF-Aib-…)] | 5810 |
| [Cit]FAMLDDV[Cit]ILANGLLQLGHGLKDFVHKTKGQI [Peptide of SEQ ID NO. 79 (Cit-FAMLDDV-Cit-…)] | 6150 |
| CRFAM[Nle]DDVKILANGLLQLGHGLKDFVHKTKGQI [Peptide of SEQ ID NO. 5 (CRFAM-Nle-…)] | 5850 |
| RF[Aib]MLDDVKILANGLLQLGHGLKDFVHKTKGQI [Peptide of SEQ ID NO. 78 (RF-Aib-…)] | 5540 |
| CR[APPA]AMLDDVKILANGLLQLGHGLKDFVHKTKGQI [Peptide of SEQ ID NO. 86 (C-R-APPA-…)] | 5130 |
| C[Cit]FAMLDDVLILANGLLQLGHGLKDFVHKTKGQI [Peptide of SEQ ID NO. 85 (C-Cit-…)] | 4920 |
| CRFAMLDDVKILANGLLQLGHGLKDFVHKTKGQI [Peptide of SEQ ID NO. 49 (…)] | 5460 |
| CRFAMLDDV[Cit]ILANGLLQLGHGLKDFVHKTKGQI [Peptide of SEQ ID NO. 87 (C-RFAMLDDV-Cit-…)] | 5820 |
| R[APPA]AMLDDVKILANGLLQLGHGLKDFVHKTKGQI [Peptide of SEQ ID NO. 2 (R-APPA-…)] | 5670 |
| C[Cit]FAMLDDV[Cit]ILANGLLQLGHGLKDFVHKTKGQI [Peptide of SEQ ID NO. 82 (C-Cit-FAMLDDV-Cit-…)] | 5520 |
| [hArg]FAMLDDVKILANGLLQLGHGLKDFVHKTKGQI [Peptide of SEQ ID NO. 80 (Har-…)] | 5310 |
| RFAMLDDVKILANGLLQLGHGLKDFVHKTKGQI [Peptide of SEQ ID NO. 1 (…)] | 4830 |
| C[hArg]FAMLDDVKILANGLLQLGHGLKDFVHKTKGQI [Peptide of SEQ ID NO. 83 (C-Har-…)] | 5900 |
| RFAMLDDV[Cit]ILANGLLQLGHGLKDFVHKTKGQI [Peptide of SEQ ID NO. 6 (RFAMLDDV-Cit-…)] | 6080 |

System: Anti-ANGPTL3 polyclonal antibody (ABC83, Sigma)
Assay: Affinity determination of peptides with anti-ANGPTL3 antibody by surface plasmon resonance (Biacore T200)
Assay type: binding
Settings: SPR, peptide 1 mM in 1×PBS over immobilized anti-ANGPTL3 pAb, 25° C., response 5 s before end of injection
Procedure: Affinity of novel peptides of the present invention with anti-ANGPTL3 antibody ‘ANG’ was analysed by surface plasmon resonance (SPR), using a Biacore instrument (Biacore T200, GE Healthcare). SPR experiments were performed at […] with a BIACORE T200 apparatus (GE Healthcare, Uppsala, Sweden).
Surface Preparation: (Procedure for Antibody immobilization) Series S Sensor Chip CM5 surface was activated by a 7-min injection of EDC-NHS. Anti-ANGPTL3 polyclonal antibody (ABC83, Sigma), diluted to 4.5 μg/mL in 10 mM acetate buffer (pH 4.0), was immobilized on one of the four flow cells of a Series S Sensor Chip CM5 with the aim of 10000 RU (resonance units) using amine-coupling. The surface was blocked with 1M ethanolamine (pH 8.5). One flow cell was immobilized as blank for reference subtraction (without antibody). 1×PBS was used as running buffer.
Binding experiments: 1 mM stock of novel peptides of the present invention were made in 1×PBS and binding studies were conducted by passing over blank as well as ligand (anti-ANGPTL3 pAb) immobilized surface. Each cycle consisted of 120 s analyte (novel peptides of the present invention) injection at a flow rate of 10 μL/min (the association phase), followed by a dissociation phase of 300 s. Purified human recombinant ANGPTL3 (FLAG-tag, 91009-1, bps bioscience) was used as positive control (1 μM) and was analyzed under identical condition. Complete dissociation of ANGPTL3 and anti-ANGPTL3 antibody interaction was achieved by regenerating surface with 10 mM glycine/HCl (pH 2.0) for 40 s at a flow rate of 10 μl/min injection.
Data Analysis: The data was analyzed using the Biacore T200 Evaluation software. All the curves were initially reference-subtracted (from blank immobilized surface) and then subtracted from zero analyte concentration. Baselines were adjusted to zero for all curves and data was presented as Relative response or binding RU (Average of 5 s window) 5 s before end of sample injection.
Affinity of novel peptides of vaccine with ANGPTL3 antibody ANG were analysed by surface plasmon resonance (SPR), using a Biacore instrument (Biacore T200, GE Healthcare). SPR experiments were performed at 25° C. with a BIACORE T200 apparatus (GE Healthcare, Uppsala, Sweden).

| Molecule | Relative response [RU] |
| --- | --- |
| 1 (RFAMLDDVKILANGLLQLGHGLKDFVHKTKGQI; artificial ANGPTL3 peptide) [compound 1] | 4832.6 |
| 87 (CRFAMLDDV[Cit]ILANGLLQLGHGLKDFVHKTKGQI) [compound 87] | 5820.9 |
| 86 (CR[APPA]AMLDDVKILANGLLQLGHGLKDFVHKTKGQI) [compound 86] | 5130.1 |
| 5 (CRFAM[Nle]DDVKILANGLLQLGHGLKDFVHKTKGQI) [compound 5] | 5850 |
| 79 ([Cit]FAMLDDV[Cit]ILANGLLQLGHGLKDFVHKTKGQI) [compound 79] | 6152.5 |
| 49 (CRFAMLDDVKILANGLLQLGHGLKDFVHKTKGQI; artificial ANGPTL3 peptide) [compound 49] | 5464.1 |
| 82 (C[Cit]FAMLDDV[Cit]ILANGLLQLGHGLKDFVHKTKGQI) [compound 82] | 5518.3 |
| 83 (C[hArg]FAMLDDVKILANGLLQLGHGLKDFVHKTKGQI) [compound 83] | 5895.2 |
| 78 (RF[Aib]MLDDVKILANGLLQLGHGLKDFVHKTKGQI) [compound 78] | 5539.6 |
| 84 (CRF[Aib]MLDDVKILANGLLQLGHGLKDFVHKTKGQI) [compound 84] | 5813.7 |
| 6 (RFAMLDDV[Cit]ILANGLLQLGHGLKDFVHKTKGQI) [compound 6] | 6084.1 |
| 2 (R[APPA]AMLDDVKILANGLLQLGHGLKDFVHKTKGQI) [compound 2] | 5674 |
| 85 (C[Cit]FAMLDDVLILANGLLQLGHGLKDFVHKTKGQI) [compound 85] | 4924.7 |
| 80 ([hArg]FAMLDDVKILANGLLQLGHGLKDFVHKTKGQI) [compound 80] | 5308.2 |

Target: T1, ANGPTL3
Assay: not given
Settings: humans, dose-dependent; cited from earlier work

| Molecule | reduction in LDL cholesterol levels | reduction in fasting triglyceride levels |
| --- | --- | --- |
| Evinacumab | up to 23% | up to 76% |
